{
  "source": "paper PMC7280502",
  "about": "“Structure and mechanism of the Nap adhesion complex from the human pathogen Mycoplasma genitalium” (Nature Communications, 2020)",
  "key": {"[1]": {"biological_target": "P140–P110 heterodimer of the purified Nap complex (full-length proteins, P110His strain) (Mycoplasma genitalium G37 (endogenous) | Mycoplasma genitalium G37) (UniProt P20796)", "experiment": "cryo-EM structure; single-particle cryo-EM of the Nap complex purified from the M. genitalium P110His strain in octylglucoside, 25 μg/ml; 9.8 Å; rigid-body fitting of P140 alone and P110 alone; closed conformation"}, "[2]": {"biological_target": "T1, extracellular region of P140 (residues 23–1351) (Mycoplasma genitalium (strain G37), UniProt P20796 23-1351)", "T1 construct": "also called extracellular P140; source: E. coli B834 (DE3), purified (Histrap, Superdex 200), same protocol as for P110N", "T1 sequence": "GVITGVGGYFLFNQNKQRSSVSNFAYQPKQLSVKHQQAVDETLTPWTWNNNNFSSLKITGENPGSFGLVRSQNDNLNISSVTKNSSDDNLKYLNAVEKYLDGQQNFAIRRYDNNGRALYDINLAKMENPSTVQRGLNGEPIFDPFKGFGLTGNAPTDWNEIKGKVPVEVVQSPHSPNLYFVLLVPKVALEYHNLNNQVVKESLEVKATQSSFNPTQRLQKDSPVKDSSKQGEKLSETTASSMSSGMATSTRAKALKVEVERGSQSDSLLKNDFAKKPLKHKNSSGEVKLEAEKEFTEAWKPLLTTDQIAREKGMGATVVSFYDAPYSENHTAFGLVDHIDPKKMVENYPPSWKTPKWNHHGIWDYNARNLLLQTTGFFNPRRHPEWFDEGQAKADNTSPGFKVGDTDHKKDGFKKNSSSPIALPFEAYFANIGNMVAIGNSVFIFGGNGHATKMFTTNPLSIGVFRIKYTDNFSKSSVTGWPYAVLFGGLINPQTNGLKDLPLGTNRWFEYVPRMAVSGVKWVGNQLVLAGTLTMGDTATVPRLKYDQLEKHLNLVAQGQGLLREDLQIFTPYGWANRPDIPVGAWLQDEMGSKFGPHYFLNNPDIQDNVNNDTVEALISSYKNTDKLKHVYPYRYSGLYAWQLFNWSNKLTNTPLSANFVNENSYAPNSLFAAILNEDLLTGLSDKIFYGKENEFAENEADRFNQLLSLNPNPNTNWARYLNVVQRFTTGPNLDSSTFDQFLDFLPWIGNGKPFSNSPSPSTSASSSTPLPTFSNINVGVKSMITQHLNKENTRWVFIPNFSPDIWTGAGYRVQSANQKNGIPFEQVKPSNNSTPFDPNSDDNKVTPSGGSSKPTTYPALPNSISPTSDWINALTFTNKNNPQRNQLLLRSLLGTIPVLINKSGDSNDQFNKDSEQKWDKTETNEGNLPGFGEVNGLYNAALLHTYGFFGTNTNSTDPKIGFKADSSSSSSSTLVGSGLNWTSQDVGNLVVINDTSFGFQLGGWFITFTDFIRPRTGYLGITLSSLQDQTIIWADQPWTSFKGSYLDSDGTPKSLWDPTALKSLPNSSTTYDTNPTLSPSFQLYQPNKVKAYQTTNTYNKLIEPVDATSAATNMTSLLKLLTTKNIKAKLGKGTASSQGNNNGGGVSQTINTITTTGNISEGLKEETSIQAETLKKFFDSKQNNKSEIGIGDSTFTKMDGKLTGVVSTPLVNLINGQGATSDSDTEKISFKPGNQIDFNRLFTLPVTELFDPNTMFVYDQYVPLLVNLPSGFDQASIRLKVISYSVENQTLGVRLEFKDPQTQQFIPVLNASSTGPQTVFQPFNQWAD", "experiment": "cryo-EM structure; single-particle cryo-EM of the purified P140–P110 heterodimer (complete extracellular regions) at 20 μg/ml; 4.1 Å, non-isotropic; X-ray P140–P110N structure fitted as a rigid body", "details": "both partners purified"}, "[3]": {"biological_target": "T1, extracellular region of P140 (residues …)", "experiment": "crystal structure; P140 and P110N mixed 1:1 and incubated 30 min at room temperature; crystals from 23% PEG 500MME, 4% PGA, 0.1 M sodium cacodylate pH 6.5, 20 °C; space group P2(1), four heterodimers in the asymmetric unit; 2.65 Å", "details": "both partners purified"}},
  "data": [
    {"molecule": "P140–P110 heterodimer of the purified Nap complex (full-length proteins, P110His strain), P20796 59-1444; P22747 26-1053", "values": [
      {"measurement": "stoichiometry N", "setting": "[1]", "value": 2}
    ]},
    {"molecule": "extracellular region of P110 (residues 23–938) (domain or fragment, P110, product of gene MG_192 of Mycoplasma genitalium strain G37, residues 23–938 (complete extracellular region), amplified from a synthetic clone; source: E. coli B834 (DE3), purified (Histrap, Superdex 200), same protocol as for P110N) ALANTFLVKEDSKNVTAYTPFATPITDSKSDLVSLAQLDSSYQIADQTIHNTNLFVLFKSRDVKVKYESSGSNNISFDSTSQGEKPSYVVEFTNSTNIGIKWTMVKKYQLDVPNVSSDMNQVLKNLILEQPLTKYTLNSSLAKEKGKTQREVHLGSGQANQWTSQRNQHDLNNNPSPNASTGFKLTTGNAYRKLSESWPIYEPIDGTKQGKGKDSSGWSSTEENEAKNDAPSVSGGGSSSGTFNKYLNTKQALESIGILFDDQTPRNVITQLYYASTSKLAVTNNHIVVMGNSFLPSMWYWVVERSAQENASNKPTWFANTNLDWGEDKQKQFVENQLGYKETTSTNSHNFHSKSFTQPAYLISGIDSVNDQIIFSGFKAGSVGYDSSSSSSSSSSSSTKDQALAWSTTTSLDSKTGYKDLVTNDTGLNGPINGSFSIQDTFSFVVPYSGNHTNNGTTGPIKTAYPVKKDQKSTVKINSLINATPLNSYGDEGIGVFDALGLNYNFKSNQERLPSRTDQIFVYGIVSPNELRSAKSSADSTGSDTKVNWSNTQSRYLPVPYNYSEGIIDADGFKRPENRGASVTTFSGLKSIAPDGFANSIANFSVGLKAGIDPNPVMSGKKANYGAVVLTRGGVVRLNFNPGNDSLLSTTDNNIAPISFSFTPFTAAESAVDLTTFKEVTYNQESGLWSYIFDSSLKPSHDGKQTPVTDNMGFSVITVSRTGIELNQDQATTTLDVAPSALAVQSGIQSTTQTLTGVLPLSEEFSAVIAKDSDQNKIDIYKNNNGLFEIDTQLSNSVATNNGGLAPSYTENRVDAWGKVEFADNSVLQARNLVDKTVDEIINTPEILNSFFRFTPAFEDQKATLVATKQSDTSLSVSPRIQFLDGNFYDLNSTIAGVPLNIGFPSRVFAGFAALP", "values": [
      {"measurement": "binding result", "setting": "[2]", "value": "binds"}
    ]},
    {"molecule": "N-terminal domain of P110 (P110N: residues 23–827) (domain or fragment, P110, product of gene MG_192 of Mycoplasma genitalium strain G37, residues 23–827 (N-terminal domain), amplified from a synthetic clone and cloned into pOPINE; source: E. coli B834 (DE3), purified (Histrap, Superdex 200)) ALANTFLVKEDSKNVTAYTPFATPITDSKSDLVSLAQLDSSYQIADQTIHNTNLFVLFKSRDVKVKYESSGSNNISFDSTSQGEKPSYVVEFTNSTNIGIKWTMVKKYQLDVPNVSSDMNQVLKNLILEQPLTKYTLNSSLAKEKGKTQREVHLGSGQANQWTSQRNQHDLNNNPSPNASTGFKLTTGNAYRKLSESWPIYEPIDGTKQGKGKDSSGWSSTEENEAKNDAPSVSGGGSSSGTFNKYLNTKQALESIGILFDDQTPRNVITQLYYASTSKLAVTNNHIVVMGNSFLPSMWYWVVERSAQENASNKPTWFANTNLDWGEDKQKQFVENQLGYKETTSTNSHNFHSKSFTQPAYLISGIDSVNDQIIFSGFKAGSVGYDSSSSSSSSSSSSTKDQALAWSTTTSLDSKTGYKDLVTNDTGLNGPINGSFSIQDTFSFVVPYSGNHTNNGTTGPIKTAYPVKKDQKSTVKINSLINATPLNSYGDEGIGVFDALGLNYNFKSNQERLPSRTDQIFVYGIVSPNELRSAKSSADSTGSDTKVNWSNTQSRYLPVPYNYSEGIIDADGFKRPENRGASVTTFSGLKSIAPDGFANSIANFSVGLKAGIDPNPVMSGKKANYGAVVLTRGGVVRLNFNPGNDSLLSTTDNNIAPISFSFTPFTAAESAVDLTTFKEVTYNQESGLWSYIFDSSLKPSHDGKQTPVTDNMGFSVITVSRTGIELNQDQATTTLDVAPSALAVQSGIQSTTQTLTGVLPLSEEFSAVIAKDSDQNKIDIYKNNNGLFEIDTQLSNSVATNNGGL", "values": [
      {"measurement": "binding result", "setting": "[3]", "value": "binds"}
    ]}
  ]
}
